Key:
Assay type in all cases: in vivo
[1] = test system: Arabidopsis thaliana T1 plants; assay: Topramezone tolerance of transgenic Arabidopsis thaliana T1 plants (spray, bleached leaf area grade, damage score); conditions: 7 DAT, Table 4; for Classification and statistics of the grade of pesticide damage: Grade 0 / Classification and statistics of the grade of pesticide damage: Grade 1 / Classification and statistics of the grade of pesticide damage: Grade 2 / Classification and statistics of the grade of pesticide damage: Grade 3: number of plants; for Scores: pesticide damage score 0-100
In short: (§1)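 Read-out: per-plant damage grade 0–3 from proportion of bleached leaf area at 7 DAT (1 <50%, 2 >50%, 3 100%). Plants were T1 transformants, glufosinate-selected, plus wild-type CK, sprayed 18 days post-sowing. Rates: topramezone 25–200, isoxaflutole 35–280, mesotrione 52.5–420 g ai/ha.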

[2] = test system: Arabidopsis thaliana T1 plants; assay: Mesotrione tolerance of transgenic Arabidopsis thaliana T1 plants (spray, bleached leaf area grade, damage score); set-up: Scores: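 damage score 0-100 computed as Σ(N×S)/(T×M)×100 over grades 0-3 with higher meaning more damage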; conditions: Arabidopsis thaliana T1 plants; for Grade 0 (classification and statistics of the grade of pesticide damage; number of plants) / Grade 1 (classification and statistics of the grade of pesticide damage; number of plants) / Grade 2 (classification and statistics of the grade of pesticide damage; number of plants) / Grade 3 (classification and statistics of the grade of pesticide damage; number of plants): 16 plants
In short: as §1

[3] = test system: Arabidopsis thaliana T1 plants; assay: Isoxaflutole tolerance of transgenic Arabidopsis thaliana T1 plants (spray, bleached leaf area grade, damage score); set-up: Scores (pesticide damage): scale not given here; conditions: spray, Arabidopsis thaliana T1 plants; for Classification and statistics of the grade of pesticide damage: Grade 0 (number of plants) / Classification and statistics of the grade of pesticide damage: Grade 1 (number of plants) / Classification and statistics of the grade of pesticide damage: Grade 2 (number of plants) / Classification and statistics of the grade of pesticide damage: Grade 3 (number of plants): 16 plants
In short: as §1

[4] = isoxaflutole 35 g ai/ha (0.5x field concentration)
[5] = isoxaflutole 70 g ai/ha (1x field concentration)

B1: GsHPPDm-F372A-F383W-02: nucleotide sequence encoding Gossypium hirsutum HPPD with F372A+F383W; vector DBN11741 (nucleic acid)
DNA: ATGGTTCAAACAAATCAATCTGGTTCTGGGAATGATTTCAAGCTGGTTGGTTTCTCAAATTTTGTGCGTAGCAATCCCAAATCAGACCGCTTCACGGTCAAGAGATTCCACCACATTGAATTTTGGTGCACTGATGCCACTAATGTGGCGAGGAGGTTTTCATGGGGTTTAGGGATGCAGTTCGTCGCCAAGAGTGACCTCTCCACAGGAAATTTGACGCATGCAAGCTACCTGCTGCGGAGCCGCGACTTGAATTTCCTGTTTACAGCACCATATTCACCCAGTATTGCAGTTGCTCAAAACCTTTCGCCACAAAGCACTGCTTCCATACCTTCATTTGATCACTCGCTTTGTCGGTCCTTTGCTGCAACACATGGACTTGGCGTCAGAGCAATTGCCATCGAGGTGGACGACGCCGAAACTGCCTTCACCACGAGCGTGACACATGGCGCGCTCCCTTTTTGTCCACCAACACCACTAGGAGATGTGGCTACAATTGCTGAAGTTAAATTATATGGTGATGTTGTGCTCAGATATGTTTCTTACACCACAACCATCAACTCCGACCATGATTTTCTGCCTGGTTTTGAGAAGATTGAAGATACTCTATCGTATCCTTTGGATTATGGCCTGCGTCGGCTCGATCATGCTGTTGGCAACGTACCTGAATTAGGTCCTGCTGTATCTTATGTGAAATCTTTTACTGGGTTCCATGAGTTTGCAGAGTTCACCGCTGAGGATGTAGGAACAAGTGAATCTGGGCTGAACTCAGTTGTTTTGGCCAACAATGAGGAAATGGTCCTCTTACCAATGAACGAGCCGGTGTTCGGCACTAAGCGCAAATCTCAAATACAGACCTACTTGGAGCACAATGAAGGAGCTGGTGTGCAGCACCTCGCCCTCGTCTCGGAGGACATCTTCAAAACTTTAAGGGAGATGAGGAAACGATCCTTTGTGGGAGGATTTGAATTCATGCCTTCTCCGCCGCCGACATACTACAAGAAGCTCAAGCAGCGCGCGGGGGACATTTTGTCTGATGAGCAGATCAAGGAGTGTGAAGAGCTTGGGATTCTTGTTGATAGAGATGATCAAGGAACGCTTCTGCAGATAGCCACCAAGCCCGTCGGCGACCGGCCTACTATATGGATTGAGATCATCCAGAGAATTGGTTGCATGGTGAAGGATGAAGAAGGGAAACAGTACCAGAAGGGCGGCTGCGGCGGGTTTGGAAAAGGAAACTTCAGTGAGCTGTTTAAAAGTATAGAGGAGTATGAAAAGAGCTTGGAAGCAAAACAATCACAAAATCCATGA
modifications: GsHPPDm-F372A-F383W-02 Nucleotide Sequence
notes: vector DBN11741
Classification and statistics of the grade of pesticide damage: Grade 0 ([1]; topramezone 25 g ai/ha (1×)): 16 | Classification and statistics of the grade of pesticide damage: Grade 1 ([1]; topramezone 25 g ai/ha (1×)): 0 | Classification and statistics of the grade of pesticide damage: Grade 2 ([1]; topramezone 25 g ai/ha (1×)): 0 | Classification and statistics of the grade of pesticide damage: Grade 3 ([1]; topramezone 25 g ai/ha (1×)): 0 | Classification and statistics of the grade of pesticide damage: Grade 0 ([1]; topramezone 100 g ai/ha (4×)): 5 | Classification and statistics of the grade of pesticide damage: Grade 1 ([1]; topramezone 100 g ai/ha (4×)): 7 | Classification and statistics of the grade of pesticide damage: Grade 2 ([1]; topramezone 100 g ai/ha (4×)): 2 | Classification and statistics of the grade of pesticide damage: Grade 3 ([1]; topramezone 100 g ai/ha (4×)): 2 | Scores ([1]; topramezone 25 g ai/ha (1×)): 0 | Scores ([1]; topramezone 100 g ai/ha (4×)): 35 | Resistance evaluation ([1]; topramezone 25 g ai/ha (1×)): highly | Resistance evaluation ([1]; topramezone 100 g ai/ha (4×)): poorly | Resistance evaluation ([2]; mesotrione 52.5 g ai/ha): Moderately | Scores ([2]; mesotrione 52.5 g ai/ha): 33 | Grade 0 (classification and statistics of the grade of pesticide damage; number of plants) ([2]; mesotrione 52.5 g ai/ha): 3 | Grade 1 (classification and statistics of the grade of pesticide damage; number of plants) ([2]; mesotrione 52.5 g ai/ha): 10 | Grade 2 (classification and statistics of the grade of pesticide damage; number of plants) ([2]; mesotrione 52.5 g ai/ha): 3 | Grade 3 (classification and statistics of the grade of pesticide damage; number of plants) ([2]; mesotrione 52.5 g ai/ha): 0 | Resistance evaluation ([2]; mesotrione 105 g ai/ha): Non-resistant | Scores ([2]; mesotrione 105 g ai/ha): 77 | Grade 0 (classification and statistics of the grade of pesticide damage; number of plants) ([2]; mesotrione 105 g ai/ha): 0 | Grade 1 (classification and statistics of the grade of pesticide damage; number of plants) ([2]; mesotrione 105 g ai/ha): 0 | Grade 2 (classification and statistics of the grade of pesticide damage; number of plants) ([2]; mesotrione 105 g ai/ha): 11 | Grade 3 (classification and statistics of the grade of pesticide damage; number of plants) ([2]; mesotrione 105 g ai/ha): 5 | Resistance evaluation [3, 4]: Highly | Scores (pesticide damage) [3, 4]: 15 | Classification and statistics of the grade of pesticide damage: Grade 0 (number of plants) [3, 4]: 9 | Classification and statistics of the grade of pesticide damage: Grade 1 (number of plants) [3, 4]: 7 | Classification and statistics of the grade of pesticide damage: Grade 2 (number of plants) [3, 4]: 0 | Classification and statistics of the grade of pesticide damage: Grade 3 (number of plants) [3, 4]: 0 | Resistance evaluation [3, 5]: Poorly | Scores (pesticide damage) [3, 5]: 48 | Classification and statistics of the grade of pesticide damage: Grade 0 (number of plants) [3, 5]: 3 | Classification and statistics of the grade of pesticide damage: Grade 1 (number of plants) [3, 5]: 5 | Classification and statistics of the grade of pesticide damage: Grade 2 (number of plants) [3, 5]: 6 | Classification and statistics of the grade of pesticide damage: Grade 3 (number of plants) [3, 5]: 2

Reference: patent publication US20250043302A1, “MUTATED HYDROXYPHENYLPYRUVATE DIOXYGENASE POLYPEPTIDE, AND CODING GENE AND USE THEREOF” (BEIJING DABEINONG BIOTECHNOLOGY CO., LTD., priority 2021, published 2025)
